According to US20130115676:
Changes are numbered by the printed parent chain.

Assays:
Test in all cases: cleavage_in_vitro
[1] = test system: T1, NcoI-HF A2T/R31A (Nocardia corallina); conditions: NEB4, 10 mM Mg acetate, 37 C
T1 sequence: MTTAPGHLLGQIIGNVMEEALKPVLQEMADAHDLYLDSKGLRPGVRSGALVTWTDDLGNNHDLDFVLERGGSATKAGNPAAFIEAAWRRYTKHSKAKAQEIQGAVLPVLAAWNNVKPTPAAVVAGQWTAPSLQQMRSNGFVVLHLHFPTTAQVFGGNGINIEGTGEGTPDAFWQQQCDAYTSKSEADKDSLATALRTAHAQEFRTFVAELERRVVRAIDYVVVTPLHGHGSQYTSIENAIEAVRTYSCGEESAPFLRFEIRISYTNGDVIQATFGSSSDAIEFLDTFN

[2] = test system: T2, SapI (Saccharopolyspora sp.); conditions: NEB4, 10 mM Mg acetate, 37 C
T2 sequence: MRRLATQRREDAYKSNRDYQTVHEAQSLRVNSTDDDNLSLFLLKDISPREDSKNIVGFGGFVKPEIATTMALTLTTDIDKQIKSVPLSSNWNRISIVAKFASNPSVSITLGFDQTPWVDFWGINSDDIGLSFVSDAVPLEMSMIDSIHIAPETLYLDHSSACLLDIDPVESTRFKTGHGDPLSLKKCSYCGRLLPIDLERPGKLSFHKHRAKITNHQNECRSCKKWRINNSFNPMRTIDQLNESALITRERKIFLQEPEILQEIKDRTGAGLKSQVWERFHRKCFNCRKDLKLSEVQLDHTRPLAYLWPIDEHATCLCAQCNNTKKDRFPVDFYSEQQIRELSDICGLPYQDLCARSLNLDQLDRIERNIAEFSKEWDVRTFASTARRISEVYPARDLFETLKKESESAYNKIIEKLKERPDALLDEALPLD

[3] = target: EcoRI-HF K62E (Escherichia coli RY13) (UniProt P00642); conditions: NEB4, 10 mM Mg acetate, 37 C
[4] = test system: T3, SphI (Streptomyces phaeochromogenes); conditions: NEB1, 10 mM MgCl2, 37 C
T3 sequence: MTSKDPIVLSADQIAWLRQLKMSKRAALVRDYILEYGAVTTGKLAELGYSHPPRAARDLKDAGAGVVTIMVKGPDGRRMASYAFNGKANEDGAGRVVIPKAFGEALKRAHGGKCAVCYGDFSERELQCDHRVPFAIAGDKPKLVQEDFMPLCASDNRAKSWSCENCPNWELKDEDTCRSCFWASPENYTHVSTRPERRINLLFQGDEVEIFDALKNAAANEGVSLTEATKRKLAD

[5] = test system: T4, SbfI (Streptomyces species Bf-61?); conditions: NEB1, 10 mM MgCl2, 37 C
T4 sequence: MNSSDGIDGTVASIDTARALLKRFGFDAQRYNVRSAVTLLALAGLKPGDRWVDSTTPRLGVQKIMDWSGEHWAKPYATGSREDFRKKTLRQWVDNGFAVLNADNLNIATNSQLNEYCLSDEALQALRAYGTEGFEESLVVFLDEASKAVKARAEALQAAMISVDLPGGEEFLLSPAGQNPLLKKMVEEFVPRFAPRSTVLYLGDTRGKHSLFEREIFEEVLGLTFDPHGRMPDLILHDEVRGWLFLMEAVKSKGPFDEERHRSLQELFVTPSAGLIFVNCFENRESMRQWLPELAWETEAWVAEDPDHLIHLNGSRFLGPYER

BstXI = conditions: NEB4, 10 mM Mg acetate, 55 C
[6] = test system: T5, SspI-HF Y98F (Sphaerotilus species); conditions: NEB4, 10 mM Mg acetate, 37 C
T5 sequence: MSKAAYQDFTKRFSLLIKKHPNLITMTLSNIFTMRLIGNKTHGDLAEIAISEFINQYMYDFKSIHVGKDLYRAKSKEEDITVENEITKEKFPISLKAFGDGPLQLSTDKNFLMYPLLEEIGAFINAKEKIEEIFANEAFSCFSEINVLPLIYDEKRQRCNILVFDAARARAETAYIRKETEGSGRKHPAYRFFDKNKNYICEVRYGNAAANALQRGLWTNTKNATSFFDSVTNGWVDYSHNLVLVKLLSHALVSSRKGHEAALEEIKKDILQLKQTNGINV

[7] = test system: T6, SbfI-HF K251A (Streptomyces species Bf-61?); conditions: NEB1, 10 mM MgCl2, 37 C
T6 sequence: T4 sequence with K251A

[8] = target: T7, PstI-HF D91A (Providencia stuartii 164) (UniProt P00640); conditions: NEB4, 10 mM Mg acetate, 37 C
T7 sequence: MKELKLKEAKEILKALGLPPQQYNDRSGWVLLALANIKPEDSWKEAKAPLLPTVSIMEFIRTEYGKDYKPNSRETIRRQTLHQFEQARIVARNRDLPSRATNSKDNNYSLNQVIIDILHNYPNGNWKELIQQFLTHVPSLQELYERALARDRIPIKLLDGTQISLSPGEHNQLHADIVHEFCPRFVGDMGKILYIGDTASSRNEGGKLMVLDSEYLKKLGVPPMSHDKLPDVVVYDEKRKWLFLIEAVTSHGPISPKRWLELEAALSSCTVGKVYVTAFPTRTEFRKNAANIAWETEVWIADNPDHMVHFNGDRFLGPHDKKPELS

[9] = target: T8, PstI (Providencia stuartii 164) (UniProt P00640); conditions: NEB3, 10 mM MgCl2, 37 C
T8 sequence: T7 sequence with A91D

BstXI-HF N65A = conditions: NEB4, 10 mM Mg acetate, 55 C

## lambda DNA
[1]
  activity (fidelity index): > 64000
[2]
  activity (fidelity index): 16
[3]
  activity (fidelity index): 16000
[4]
  activity (fidelity index): 64
[5]
  activity (fidelity index): 32
BstXI
  activity (fidelity index): 4
[6]
  activity (fidelity index): 500
[7]
  activity (fidelity index): 1000
[8]
  activity (fidelity index): 4000
[9]
  activity (fidelity index): 120
BstXI-HF N65A
  activity (fidelity index): > 250
